Target: C3b (Comptech), P01024
Sequence (P01024 whole entry, looked up): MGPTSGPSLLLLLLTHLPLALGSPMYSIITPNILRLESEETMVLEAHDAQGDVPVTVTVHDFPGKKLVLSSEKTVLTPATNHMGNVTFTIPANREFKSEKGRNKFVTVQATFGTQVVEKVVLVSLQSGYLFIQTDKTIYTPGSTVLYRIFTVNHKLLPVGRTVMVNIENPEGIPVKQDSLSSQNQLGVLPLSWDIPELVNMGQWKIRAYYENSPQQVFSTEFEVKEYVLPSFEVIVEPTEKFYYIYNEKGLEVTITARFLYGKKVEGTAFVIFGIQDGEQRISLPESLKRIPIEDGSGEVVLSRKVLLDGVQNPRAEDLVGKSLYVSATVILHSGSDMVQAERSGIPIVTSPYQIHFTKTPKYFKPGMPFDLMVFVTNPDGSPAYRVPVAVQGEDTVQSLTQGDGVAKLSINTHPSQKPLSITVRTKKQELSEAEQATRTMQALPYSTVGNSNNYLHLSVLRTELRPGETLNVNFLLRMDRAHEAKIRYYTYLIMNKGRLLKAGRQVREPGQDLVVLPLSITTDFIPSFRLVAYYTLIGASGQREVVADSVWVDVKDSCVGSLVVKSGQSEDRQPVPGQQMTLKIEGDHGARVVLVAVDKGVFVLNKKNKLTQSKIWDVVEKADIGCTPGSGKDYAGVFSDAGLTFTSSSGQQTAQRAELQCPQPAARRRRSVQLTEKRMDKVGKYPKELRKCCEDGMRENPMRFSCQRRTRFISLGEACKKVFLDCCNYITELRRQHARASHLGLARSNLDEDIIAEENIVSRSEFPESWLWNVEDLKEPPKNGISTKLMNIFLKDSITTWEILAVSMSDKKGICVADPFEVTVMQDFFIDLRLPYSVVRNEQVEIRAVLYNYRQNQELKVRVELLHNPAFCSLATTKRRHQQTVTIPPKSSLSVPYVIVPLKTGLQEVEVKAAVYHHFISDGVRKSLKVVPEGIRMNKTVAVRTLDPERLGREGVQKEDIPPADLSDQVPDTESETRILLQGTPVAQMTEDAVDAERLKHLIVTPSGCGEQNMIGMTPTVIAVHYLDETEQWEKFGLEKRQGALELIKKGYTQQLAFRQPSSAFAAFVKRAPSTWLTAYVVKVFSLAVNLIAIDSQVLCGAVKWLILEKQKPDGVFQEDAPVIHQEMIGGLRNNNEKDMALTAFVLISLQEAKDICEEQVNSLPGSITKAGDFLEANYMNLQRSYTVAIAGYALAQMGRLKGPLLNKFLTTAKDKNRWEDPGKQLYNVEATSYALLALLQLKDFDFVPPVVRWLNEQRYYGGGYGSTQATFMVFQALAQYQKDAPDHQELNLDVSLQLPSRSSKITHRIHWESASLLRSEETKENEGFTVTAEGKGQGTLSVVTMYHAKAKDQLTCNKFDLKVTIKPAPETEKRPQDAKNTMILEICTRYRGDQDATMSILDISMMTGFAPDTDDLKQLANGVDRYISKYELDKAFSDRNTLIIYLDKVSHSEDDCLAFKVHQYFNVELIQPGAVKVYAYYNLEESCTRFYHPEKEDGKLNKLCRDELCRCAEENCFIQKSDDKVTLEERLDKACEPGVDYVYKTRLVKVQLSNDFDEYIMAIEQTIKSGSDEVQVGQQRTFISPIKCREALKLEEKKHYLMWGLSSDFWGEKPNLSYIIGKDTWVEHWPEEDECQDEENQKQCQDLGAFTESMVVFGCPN

B1: recombinant mature Complement Factor I made by in vitro furin cleavage of pro-rCFI (protein)
chain 1: KVTYTSQEDLVEKKCLAKKYTHLSCDKVFCQPWQRCIEGTCVCKLPYQCPKNGTAVCATNRRSFPTYCQQKSLECLHPGTKFLNNGTCTAEGKFSVSLKHGNTDSEGIVEVKLVDQDKTMFICKSSWSMREANVACLDLGFQQGADTQRRFKLSDLSINSTECLHVHCRGLETSLAECTFTKRRTMGYQDFADVVCYTQKADSPMDDFFQCVNGKYISQMKACDGINDCGDQSDELCCKACQGKGFHCKSGVCIPSQYQCNGEVDCITGEDEVGCAGFASVAQEETEILTADMDAERRRIKSLLPKLSCGVKNRMHI
chain 2: IVGGKRAQLGDLPWQVAIKDASGITCGGIYIGGCWILTAAHCLRASKTHRYQIWTTVVDWIHPDLKRIVIEYVDRIIFHENYNAGTYQNDIALIEMKKDGNKKDCELPRSIPACVPWSPYLFQPNDTCIVSGWGREKDNERVFSLQWGEVKLISNCSKFYGNRFYEKEMECAGTYDGSIDACKGDSGGPLVCMDANNVTYVWGVVSWGENCGKPEFPGVYTKVANYFDWISYHVGRPFISQYNV
C3b inactivation (cofactor) assay with CFH, western blot of alpha1 and alpha2 bands: lane 8 which corresponds to a sample containing the in vitro cleaved mature rCFI, is the only sample containing bands that correspond to the α1 and α2 chains | C3b inactivation assay, second western blot: The activity of the in vitro cleaved rCFI can be seen to be comparable to sCFI

B2: recombinant precursor Complement Factor I (pro-rCFI), His-tagged, expressed in CHO cells (protein)
chain: KVTYTSQEDLVEKKCLAKKYTHLSCDKVFCQPWQRCIEGTCVCKLPYQCPKNGTAVCATNRRSFPTYCQQKSLECLHPGTKFLNNGTCTAEGKFSVSLKHGNTDSEGIVEVKLVDQDKTMFICKSSWSMREANVACLDLGFQQGADTQRRFKLSDLSINSTECLHVHCRGLETSLAECTFTKRRTMGYQDFADVVCYTQKADSPMDDFFQCVNGKYISQMKACDGINDCGDQSDELCCKACQGKGFHCKSGVCIPSQYQCNGEVDCITGEDEVGCAGFASVTQEETEILTADMDAERRRIKSLLPKLSCGVKNRMHIRRKRIVGGKRAQLGDLPWQVAIKDASGITCGGIYIGGCWILTAAHCLRASKTHRYQIWTTVVDWIHPDLKRIVIEYVDRIIFHENYNAGTYQNDIALIEMKKDGNKKDCELPRSIPACVPWSPYLFQPNDTCIVSGWGREKDNERVFSLQWGEVKLISNCSKFYGNRFYEKEMECAGTYDGSIDACKGDSGGPLVCMDANNVTYVWGVVSWGENCGKPEFPGVYTKVANYFDWISYHVGRPFISQYNV
C3b cofactor assay, western blot: only cleaved FI has activity, and Pro-FI is inactive

B3: serum CFI (Comptech) (protein)
chain: B2 chain
C3b inactivation assay, positive control: iC3b cleaved by incubation with mature sCFI
